This is an account of results in publication PMC5875921.

Series [1] addresses HNH domain of NmeCas9 (Neisseria meningitidis) (UniProt C9X1G5). As to the kind of experiment: ITC. (Isothermal titration calorimetry measures the heat released or taken up as one component is titrated into another.)
Series [2] deals with NmeCas9 (Neisseria meningitidis). The series can be described thus: fluorescence polarization. The note with it: not given in the material (Methods absent). (In general: Fluorescence polarisation rises when a labelled molecule tumbles more slowly, as on binding a larger partner.)

The term Kd denotes the concentration at which binding is half-saturated. A high value points to weaker binding. In turn, “AcrIIC1 from Neisseria meningitidis (natural protein)” gave a Kd in series [1] of 6.3 nM. Take NmeCas9 sgRNA + target DNA: the Kd in series [2] was determined as 71 nM.
